Assay results published in US20140031283A1, “ANTICANCER FUSION PROTEIN” (ADAMED SP. Z O.O., priority 2011, published 2014).
Several values for one entry are separate records, joined by “and”; a condition that tells them apart may be missing. Equal entries are not always repeated.

Assays:
MDA-MB-231 = assay: MTT cytotoxicity test, MDA-MB-231 (human breast cancer); type: cell-based; settings: Table 4, mean/SD part
Description: (§1) MTT assay is a colorimetric assay used to measure proliferation, viability and cytotoxicity of cells. It consists in decomposition of a yellow tetrazolium salt MTT (4,5-dimethyl-2-thiazolyl)-2,5-diphenyltetrazolium bromide) to the water-insoluble purple dye formazan by mitochondrial enzyme succinate-tetrazolium reductase 1. MTT reduction occurs only in living cells. Data analysis consists in determining IC50 concentration of the protein (in ng/ml), at which the 50% reduction in the number of cells occurs in the population treated compared to control cells. Results were analyzed using GraphPad Prism 5.0 software. The test was performed according to the literature descriptions (Cells, J E, (1998). Cell Biology, a Laboratory Handbook, second edition, Academic Press, San Diego; Yang, Y., Koh, L W, Tsai, J H., (2004); Involvement of viral and chemical factors with oral cancer in Taiwan, Jpn J Clin Oncol, 34 (4), 176-183). Cell culture medium was diluted to a defined density (10^4-10^5 cells per 100 μl). Then 100 μl of appropriately diluted cell suspension was applied to a 96-well plate in triplicates. […] After stirring, the absorbance was measured at 570 nm (reference filter 690 nm). […]

UM-UC-3 = assay: MTT cytotoxicity test, UM-UC-3 (human bladder cancer); type: cell-based; settings: Table 4, mean/SD part
Description: as §1

NIH: OVCAR-3 = assay: MTT cytotoxicity test, NIH: OVCAR-3 (human ovarian cancer); type: cell-based; settings: Table 4, mean/SD part
Description: as §1

MES-SA = assay: MTT cytotoxicity test, MES-SA (human uterine sarcoma); type: cell-based
Description: (§2) MTT assay is a colorimetric assay used to measure proliferation, viability and cytotoxicity of cells. It consists in decomposition of a yellow tetrazolium salt MTT (4,5-dimethyl-2-thiazolyl)-2,5-diphenyltetrazolium bromide) to the water-insoluble purple dye formazan by mitochondrial enzyme succinate-tetrazolium reductase 1. MTT reduction occurs only in living cells. Data analysis consists in determining IC50 concentration of the protein (in ng/ml), at which the 50% reduction in the number of cells occurs in the population treated compared to control cells. Results were analyzed using GraphPad Prism 5.0 software. The test was performed according to the literature descriptions (Cells, J E, (1998). Cell Biology, a Laboratory Handbook, second edition, Academic Press, San Diego; Yang, Y., Koh, L W, Tsai, J H., (2004); Involvement of viral and chemical factors with oral cancer in Taiwan, Jpn J Clin Oncol, 34 (4), 176-183). Cell culture medium was diluted to a defined density (10^4-10^5 cells per 100 μl). Then 100 μl of appropriately diluted cell suspension was applied to a 96-well plate in triplicates. Thus prepared cells were incubated for 24 h at 37° C. in 5% or 10% CO2, depending on the medium used, and then to the cells (in 100 μl of medium) further 100 μl of the medium containing various concentrations of tested proteins were added. In the case of combination hTRAIL114-281 and p21WAF effector protein, 100 μl of the medium containing mixture of hTRAIL114-281 and p21WAF effector protein in molar ratio 1:1 was added. After incubation of the cells with tested proteins over the period of next 72 hours, which is equivalent to 3-4 times of cell division, the medium with the test protein was added with […] of MTT working solution [5 mg/ml], and incubation was continued for 3 h at 37° C. in 5% CO2. Then the medium with MTT solution was removed, and formazan crystals were dissolved by adding 100 μl of DMSO. After stirring, the absorbance was measured at 570 nm (reference filter 690 nm).
(§3) The results of in vitro cytotoxicity tests are summarized as IC50 values (ng/ml), which corresponds to the protein concentration at which the cytotoxic effect of fusion proteins is observed at the level of 50% with respect to control cells treated only with solvent. Each experiment represents the average value of at least two independent experiments performed in triplicates. As a criterion of lack of activity of protein preparations the IC50 limit of 2000 ng/ml was adopted.

MES-SA/Dx5 = assay: MTT cytotoxicity test, MES-SA/Dx5 (multidrug-resistant human uterine sarcoma); type: cell-based
Description: as §2, §3
Cells selected for this test included tumor cell lines that are naturally resistant to TRAIL protein (the criterion of natural resistance to TRAIL: IC50 for TRAIL protein >2000), as well as tumor cell lines sensitive to TRAIL protein and resistant to doxorubicin line MES-SA/DX5 as a cancer line resistant to conventional anticancer medicaments.

SK-MES-1 = assay: MTT cytotoxicity test, SK-MES-1 (human lung cancer); type: cell-based
Description: as §2, §3

SW620 = assay: MTT cytotoxicity test, SW620 (human colorectal cancer); type: cell-based; settings: Table 4, mean/SD part
Description: as §1

HepG2 = assay: MTT cytotoxicity test, HepG2 (human liver hepatoma); type: cell-based; settings: Table 4, mean/SD part
Description: as §1

A549 = assay: MTT cytotoxicity test, A549 (human lung cancer); type: cell-based
Description: as §2, §3

MCF10A = assay: MTT cytotoxicity test, MCF10A (mammary epithelial cells); type: cell-based
Description: as §2, §3

Panc-1 = assay: MTT cytotoxicity test, Panc-1 (human pancreatic cancer); type: cell-based; settings: Table 4, mean/SD part
Description: as §1

PLC/PRF/5 = assay: MTT cytotoxicity test, PLC/PRF/5 (human liver hepatoma); type: cell-based; settings: Table 4, mean/SD part
Description: as §1

NCI-H460 = settings: Table 4, mean/SD part
Description: (§4) Data analysis consists in determining IC50 concentration of the protein (in ng/ml), at which the 50% reduction in the number of cells occurs in the population treated compared to control cells. Results were analyzed using GraphPad Prism 5.0 software. […] Cell culture medium was diluted to a defined density (10^4-10^5 cells per 100 μl). Then 100 μl of appropriately diluted cell suspension was applied to a 96-well plate in triplicates. Thus prepared cells were incubated for 24 h at 37° C. in 5% or 10% CO2, depending on the medium used, and then to the cells (in 100 μl of medium) further 100 μl of the medium containing various concentrations of tested proteins were added. […] After incubation of the cells with tested proteins over the period of next 72 hours, which is equivalent to 3-4 times of cell division, the medium with the test protein was added with 20 ml of MTT working solution [5 mg/ml], and incubation was continued for 3 h at 37° C. in 5% CO2. Then the medium with MTT solution was removed, and formazan crystals were dissolved by adding 100 μl of DMSO. After stirring, the absorbance was measured at 570 nm (reference filter 690 nm).

[1] = continuous incubation over 72 h, test MTT

Description for HCT-116: as §4

Row | Molecule | MDA-MB-231 mean (IC50) (MDA-MB-231) [mg/L] | UM-UC-3 mean (IC50) (UM-UC-3) [mg/L] | OVCAR-3 mean (IC50) (NIH: OVCAR-3) [mg/L] | MES-SA mean (IC50) (MES-SA; Table 4, mean/SD part) [mg/L] | MES-SA/Dx5 mean (IC50) (MES-SA/Dx5; Table 4, mean/SD part) [mg/L] | SK-MES-1 mean (IC50) (SK-MES-1; Table 4, mean/SD part) [mg/L] | HCT116 mean (IC50) (HCT-116; Table 4, mean/SD part) [mg/L] | SW620 mean (IC50) (SW620) [mg/L] | HepG2 mean (IC50) (HepG2) [mg/L] | A549 mean (IC50) (A549; Table 4, mean/SD part, listed as Ex. 23^a) | A549 IC50 (A549; [1]) [mg/L] | MES-SA IC50 (MES-SA; [1]) [mg/L] | MES-SA/Dx5 IC50 (MES-SA/Dx5; [1]) [mg/L] | SK-MES-1 IC50 (SK-MES-1; [1]) [mg/L] | MCF10A mean (IC50) (MCF10A; Table 4, mean/SD part) [mg/L] | MCF10A IC50 (MCF10A; [1]) [mg/L] | PANC-1 mean (IC50) (Panc-1) [mg/L] | PLC/PRF/5 mean (IC50) (PLC/PRF/5) [mg/L] | NCI-H460 mean (IC50) (NCI-H460) [mg/L] | HCT116 IC50 (HCT-116; [1]) [mg/L]
1 | Ex. 3: fusion protein: 8-amino acid fragment of human fetoprotein at C-terminus of TRAIL121-281, MMP and uPA cleavage sites (protein, synthesized, a fusion protein comprising: a fragment of TRAIL protein, a fragment of human fetoprotein and cleavage sites recognized by uPA and MMP., fusion protein: 8-amino acid fragment of human fetoprotein at C-terminus of TRAIL121-281, MMP and uPA cleavage sites) RVAAHITGTRGRSNTLSSPNSKNEKALGRKINSWESSRSGHSFLSNLHLRNGELVIHEKGFYYIYSQTYFRFQEEIKENTKNDKQMVQYIYKYTSYPDPILLMKSARNSCWSKDAEYGLYSIYQGGIFELKENDRIFVSVTNEHLIDMDHEASFFGAFLVGPLGLAGRVVREMTPVNPG | 0.02086 | 0.0204 | 0.02751 | 0.03618 | 0.03431 | 0.007755 | 0.041 |  |  |  |  |  |  |  |  |  |  |  |  | 
2 | Ex. 23: fusion protein: 13-amino acid inhibitor of RasGAP-Aurora B interactions with 8 arginine residues at N-terminus of TRAIL121-281, uPA and MMP sites (protein, synthesized, a fusion protein comprising: a fragment of TRAIL protein, a peptide acting as an inhibitor of interactions RasGAP - Aurora B, cleavage sites recognized by uPA and MMP, an arginine transporting domain and a cysteine stabilizing residue.) KWVVSHARLMYSFRRRRRRRRRVVRPLGLAGCRVAAHITGTRGRSNTLSSPNSKNEKALGRKINSWESSRSGHSFLSNLHLRNGELVIHEKGFYYIYSQTYFRFQEEIKENTKNDKQMVQYIYKYTSYPDPILLMKSARNSCWSKDAEYGLYSIYQGGIFELKENDRIFVSVTNEHLIDMDHEASFFGAFLVG |  |  |  |  |  |  |  | 0.01192 | 0.01049 | 0.2784 mg/L and 0.3589 mg/L | 0.2387 | 0.00061 | 0.00013 | 0.00042 | 0.005196 | 0.00598 | 0.0229 | 0.006821 | 0.00711 | 0.00148
